Results published in PMC5115946 (Journal of molecular biology, 2016).

Legend:
AUC = target: the molecule itself; assay: AUC
[1] = target: UBCH5B (ubiquitin-conjugating enzyme E2 D2) (human, UniProt P62837 1-147); assay: AUC

Kd [1]: 15 µM
B1: RING finger protein 4 (RNF4) (enzyme, human, UniProt P78317 1-190, looked up)
chain: MSTRKRRGGAINSRQAQKRTREATSTPEISLEAEPIELVETAGDEIVDLTCESLEPVVVDLTHNDSVVIVDERRRPRRNARRLPQDHADSCVVSSDDEELSRDRDVYVTTHTPRNARDEGATGLRPSGTVSCPICMDGYSEIVQNGRLIVSTECGHVFCSQCLRDSLKNANTCPTCRKKINHKRYHPIYI
stoichiometry N (AUC): 2
